Reference: patent US20190374506A1 (BETH ISREAL DEACONESS MEDICAL CENTER, published 2019)

T1: Flag-WWP1 ΔWW domain (deletion 341-547) (Homo sapiens (Human), UniProt Q9H0M0 1-922)
T1 construct: The two kept ranges are counted on the 922-residue WWP1 entry; not shown: Flag tag
T1 sequence: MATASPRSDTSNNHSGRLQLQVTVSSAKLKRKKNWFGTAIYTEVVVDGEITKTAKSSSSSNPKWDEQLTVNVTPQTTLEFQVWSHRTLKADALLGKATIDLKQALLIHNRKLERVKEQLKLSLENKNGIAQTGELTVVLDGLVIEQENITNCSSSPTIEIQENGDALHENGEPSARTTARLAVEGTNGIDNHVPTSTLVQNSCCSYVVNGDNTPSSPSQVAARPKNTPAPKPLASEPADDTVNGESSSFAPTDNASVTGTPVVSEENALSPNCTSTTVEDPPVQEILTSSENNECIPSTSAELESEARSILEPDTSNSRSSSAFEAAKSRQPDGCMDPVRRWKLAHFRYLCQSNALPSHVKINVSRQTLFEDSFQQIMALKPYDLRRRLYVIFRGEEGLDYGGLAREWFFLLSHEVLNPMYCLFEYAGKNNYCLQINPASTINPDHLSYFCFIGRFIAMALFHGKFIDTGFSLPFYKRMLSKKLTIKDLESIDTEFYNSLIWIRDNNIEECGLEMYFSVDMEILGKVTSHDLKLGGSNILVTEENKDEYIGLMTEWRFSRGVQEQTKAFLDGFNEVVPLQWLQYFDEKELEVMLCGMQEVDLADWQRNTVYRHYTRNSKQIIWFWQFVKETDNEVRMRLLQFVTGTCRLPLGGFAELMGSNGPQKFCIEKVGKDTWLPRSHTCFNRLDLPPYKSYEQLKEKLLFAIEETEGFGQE


Tests used:
[1] = biological target: the molecule itself; test: self-association of PTEN in Wwp1-/- against Wwp1+/+ MEFs, non-reducing/non-denaturing gel (FIG. 5F); similar results in Nedd4-/- MEFs (FIG. 5I)
Excerpt: Similar results were also obtained in Nedd4^{-/-} MEFs (FIG. 5I, FIG. 5J).
(§1) Western Blotting and Immunoprecipitation. For western blotting, cells were lysed in RIPA buffer (Boston BioProducts) supplemented with protease (Roche) and phosphatase (Roche) inhibitor. Proteins were separated on NuPAGE 4-12% Bis-Tris gradient gels (Invitrogen), transferred to polyvinylidine difluoride membranes (Immobilon P, Millipore) and the blots were probed with the indicated antibodies. For immunoprecipitation, PC3, 293T and MEF cells were transfected with the indicated expression vectors by using LIPOFECTAMIN 2000 (Life Technologies). 24 hours after transfection, cells were lysed in RIPA buffer with protease (Roche) and phosphatase (Roche) inhibitor. 500 μg of total lysates were pre-cleared for 30 minutes at 4° C., and then immunoprecipitated with anti-Myc (Cell Signaling Technology 9B11, 1:500), or anti-PTEN (Cell Signaling Technology 9559, 1:500) antibody overnight at 4° C. The Protein-A or Protein-G sepharose beads (GE Healthcare) were then added and incubated for another 2 hours. The immunoprecipitates were washed with RIPA buffer three times. In denaturing conditions, standard Laemmli-Buffer with 5% final concentration of β-mercaptoethanol was added to the samples, which were then boiled and separated on NuPAGE 4-12% Bis-Tris gradient gels (Invitrogen). […]

[2] = biological target: T1, Flag-WWP1 ΔWW domain (deletion 341-547); test: immunoprecipitation and western blot, 293 cells (FIG. 4E)
Experimental: Lysates of 293 cells transfected with indicated constructs were analysed by immunoprecipitation and/or western blot with indicated antibodies.
as §1, with “times.” for “times. In denaturing conditions, standard Laemmli-Buffer with 5% final concentration of β-mercaptoethanol was added to the samples, which were then boiled and separated on NuPAGE 4-12% Bis-Tris gradient gels (Invitrogen).”

[3] = biological target: T2, WW domain containing E3 ubiquitin protein ligase 1 (WWP1) (human, UniProt Q9H0M0 1-922, limits assumed); test: anti-PTEN immunoprecipitation from DU145 cells, western blot (FIG. 2B)
T2 construct: also called endogenous WWP1; WW domain-containing protein-1

Row | Binder | binding result [1] | binding result [2] | binding result [3]
1 | PTEN of MEFs (mouse) (enzyme, UniProt O08586 2-403, looked up, also called PTEN in Wwp1+/+ and Wwp1-/- MEFs; PTEN in Nedd4+/+ and Nedd4-/- MEFs) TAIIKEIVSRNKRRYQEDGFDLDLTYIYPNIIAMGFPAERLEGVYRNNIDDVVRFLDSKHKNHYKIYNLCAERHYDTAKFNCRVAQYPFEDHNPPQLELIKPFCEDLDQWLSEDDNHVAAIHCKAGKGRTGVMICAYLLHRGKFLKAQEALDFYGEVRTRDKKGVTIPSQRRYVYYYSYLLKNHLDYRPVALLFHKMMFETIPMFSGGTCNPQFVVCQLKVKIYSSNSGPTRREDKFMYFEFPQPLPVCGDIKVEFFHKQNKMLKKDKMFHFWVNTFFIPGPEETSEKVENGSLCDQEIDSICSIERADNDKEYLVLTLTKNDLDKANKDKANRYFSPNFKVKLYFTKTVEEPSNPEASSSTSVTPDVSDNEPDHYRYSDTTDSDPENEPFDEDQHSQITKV | binds |  | 
2 | Phosphatase And Tensin Homolog Deleted On Chromosome Ten (PTEN) (enzyme, also called endogenous PTEN; PTEN WT) not shown |  | no binding | binds
